The term koff denotes a measure of how fast the partners let go of each other. As usually defined, the Kd is a measure of binding affinity in units of concentration. The term kon denotes the second-order rate constant of association.

The results in this text go back to patent US20240166731A1 (Janssen / Centocor, published 2024).

Experiment [1] has as its target T1, human full-length recombinant tau (2N4R) (human, UniProt P10636 2-758).
T1 construct: also called full length tau protein; full-length recombinant Tau protein
In words: SPR, Biacore T200, 25 C, mAb captured by anti-Fc on CM4 chip, tau in solution, 1:1 Langmuir fit; koff based on 1-hour limit, 5% dissociation. The protocol:
(§1) The interactions of anti-tau antibodies with human full-length recombinant tau (2N4R) were studied by SPR using a Biacore T200 at 25° C. with HBS pH 7.4 buffer, supplemented with 3 mM EDTA, and 0.05% Tween 20. Briefly, a biosensor surface was prepared by coupling a mixture of anti-mouse/anti-human IgG Fcγ-fragment specific antibody to the surface of a CM4 sensor chip using manufacturer's instructions for amine-coupling chemistry (>4000 response units (RU)). The coupling buffer was 10 mM sodium acetate, pH 4.5. The anti-tau antibodies were diluted in the running buffer and injected to obtain enough capture to enable detection of antigen binding. Capture of anti-tau mAbs was followed by injection of recombinantly expressed tau solutions ranging from 0.12 nM to 75 nM at 5-fold dilutions. The association and dissociation were monitored for 3 minutes and 60 min respectively at 50 μL/min flow rate. Regeneration of the sensor surface was performed with 0.85% H₃PO₄. The binding sensorgrams were fitted using to a 1:1 Langmuir binding model to obtain on-rates, off-rates, and affinities. PT1B635 and PT1B901 bound to full length tau protein with similar tight affinities as the parent mAbs, PT/66 or PT1B545 (FIG. 3 and Table 2 below).
(Surface plasmon resonance follows binding to a sensor surface in real time, without labels.)

For experiment [2], the target named is T1, human full-length recombinant tau (2N4R). In words: SPR, Biacore T200, 25 C, mAb captured by anti-Fc on CM4 chip, tau in solution, 1:1 Langmuir fit. The protocol: as §1
The target is the same in experiment [3]. In words: SPR, mAb captured, tau in solution, single-cycle kinetics, 120 min dissociation, 1:1 Langmuir fit.
Experiment [4] has the same target. Description: SPR, mAb captured, tau in solution, single-cycle kinetics, 1:1 Langmuir fit; koff based on 2-hour limit, 5% dissociation.

Positions count from the first letter of the chain named. Names and notes keep the numbering of the source. Where only a bound is given, the exact number is not on record here.

T1 sequence (P10636 other isoform, or with tags, fused parts or gaps limits assumed): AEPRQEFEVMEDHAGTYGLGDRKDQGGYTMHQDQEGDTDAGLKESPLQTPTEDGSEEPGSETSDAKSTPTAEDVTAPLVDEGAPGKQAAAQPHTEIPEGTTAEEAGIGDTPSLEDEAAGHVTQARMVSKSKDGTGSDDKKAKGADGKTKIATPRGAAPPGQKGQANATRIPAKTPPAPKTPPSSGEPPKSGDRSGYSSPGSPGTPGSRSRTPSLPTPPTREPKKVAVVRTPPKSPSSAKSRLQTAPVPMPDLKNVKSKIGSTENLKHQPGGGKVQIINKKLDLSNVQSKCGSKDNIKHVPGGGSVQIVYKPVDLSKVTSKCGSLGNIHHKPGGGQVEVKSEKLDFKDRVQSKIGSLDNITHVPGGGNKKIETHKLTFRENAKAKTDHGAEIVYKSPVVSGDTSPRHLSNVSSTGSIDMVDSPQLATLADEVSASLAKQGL

B1: PT/66 anti-PHF-Tau monoclonal Ab (mouse parent) (antibody, V domains shown)
VH: QVQLQQPGAELVKPGASVKMSCKASGYTFTSYWITWVKQRPGQGLEWIGDIHPGRGSTKSNEKFKSKATLTVDTSSSTAYMQFSSLTSEDSAVYYCARRWGFDYWGQGTTLTVSS
VL: DIVITQDELSNPVTSGESVSISCRSSKSLLYKDGKTYLNWFLQRPGQSPQLLIYLMSTRASGVSDRFSGSGSGTDFTLEISRVKAEDVGVYYCQQLVDYPLTFGAGTKLELK
notes: Murine mAb
Turning to B1, the koff in experiment [1] is below 1.42e-05 s⁻¹. In addition, in experiment [2], the Kd was below 0.031 nM and the on-rate (kon) amounted to 450000 M⁻¹ s⁻¹.

B2: PT1B545 (antibody, mouse IgG2a, kappa, V domains shown)
VH: B1 VH
VL: DIVITQDELSNPVTSGESVSISCRSSKSLLYKDGKTYLNWFLQRPGQSPQLLIYLMSTRASGVSDRFSGSGSGTDFTLEISRVKAEDVGVYYCQQLVDYPLTFGAGTKLELKR
notes: Recombinant version of the parent mAb PT/66, with mouse constant regions; also called rec. parent; recombinant parent of PT/66
As to B2, in experiment [1], the off-rate (koff) is below 1.42e-05 s⁻¹. Besides, in experiment [2], the dissociation constant Kd was below 0.028 nM and the kon stood at 510000 M⁻¹ s⁻¹.

B3: PT1B635 (antibody, human IgG1, kappa, V domains shown)
VH: QVQLVQSGAEVKKPGASVKVSCKASGYTFTSYWITWVRQAPGQGLEWMGDIHPGRGSTKYAQKLQGRVTLTTDTSTSTAYMELRSLRSDDTAVYYCARRWGFDYWGQGTLVTVSS
VL: DIVITQTPLSLPVTPGEPASISCRSSKSLLYKDGKTYLNWFLQKPGQSPQLLIYLMSTRASGVPDRFSGSGSGTDFTLKISRVEAEDVGVYYCQQLVDYPLTFGQGTKLEIKR
notes: also called humanized PT/66 variant
As to B3, in experiment [1], the koff was below 1.42e-05 s⁻¹. Moreover, in experiment [2], the Kd was below 0.041 nM and the kon was 370000 M⁻¹ s⁻¹.

B4: PT1B901 (antibody, human IgG1, kappa, V domains shown)
VH: B3 VH
VL: B3 VL with G34L
notes: also called humanized PT/66 variant with G44L in LCDR1
For B4, in experiment [2], the Kd was found to be 0.059 nM, the koff came out at 2e-05 s⁻¹ and the on-rate (kon) came to 300000 M⁻¹ s⁻¹.

B5: PT1B1183 (antibody, human IgG1, kappa, V domains shown)
VH: B3 VH with A40R, L70M
VL: B3 VL with I4M, L11S, P15L, E17Q, L42Q, K44R, Q50R, S72A
notes: also called humanized antibody derived from PT1B1153 by modifying the 2nd light chain framework region
As for B5, in experiment [3], the dissociation constant (Kd) is below 0.00618 nM and the kon was found to be 1.99e+06 M⁻¹ s⁻¹. The koff in experiment [4] was below 1.19e-05 s⁻¹.
